The results in this text go back to article PMC6467919, “Designed Mutations Alter the Binding Pathways of an Intrinsically Disordered Protein” (Scientific Reports, 2019).

Holding throughout (settings): both partners purified
For assay [1], the target named is T1, Human Cdc42 GTPase, wild type, residues 1-179 (human, UniProt P60953 1-179).
T1 construct: four extra residues (Gly-Ser-Phe-Thr) from the expression vector left at the N-terminus of Cdc42; human Cdc42, residues 1-179; also called Cdc42WT; wild-type Cdc42; source: E. coli Rosetta, purified (HisTrap, TEV cleavage, second HisTrap, Superdex 75); not shown: His6, N-terminal, cleaved
As to the kind of experiment: stopped-flow fluorescence; ka from kobs against [GBD] as in buffer, with 1 M urea added.

Assay [2] addresses T1, Human Cdc42 GTPase, wild type, residues …. As to the kind of experiment: stopped-flow fluorescence; ka from kobs against [GBD]; 0.1 μM mantGppNHp·Cdc42 in one syringe, GBD in excess in the second; 50 mM sodium phosphate pH 7.0, 5 mM MgCl2, 1 mM TECP, 25 °C.
The target of assay [3] is T2, Human Cdc42 (residues 1-179) with Glu31, Asn39, Glu62, Asp63, Asp65 and Gln74 all substituted by Lys (human, UniProt P60953 1-179, Glu31 substituted by Lys | Asn39 substituted by Lys | Glu62 substituted by Lys …).
T2 construct: four extra residues (Gly-Ser-Phe-Thr) from the expression vector left at the N-terminus of Cdc42; human Cdc42, residues 1-179, with the 6K mutations around the subsite for GBD Csub; Loaded with mantGppNHp or GppNHp; also called Cdc42_(6K); source: E. coli Rosetta, purified (HisTrap, TEV cleavage, second HisTrap, Superdex 75); not shown: His6, N-terminal, cleaved
Described as above.

In assay [4] the target is T1, Human Cdc42 GTPase, wild type, residues …. Kind of assay: stopped-flow fluorescence; kd measured directly by displacement: 0.1 μM mantGppNHp·Cdc42 and 1 μM GBD mixed with 20 μM GppNHp·Cdc42; 50 mM sodium phosphate pH 7.0, 5 mM MgCl2, 1 mM TECP, 25 °C.
Assay [5] has the same target. As to the kind of experiment: other fluorescence titration; Kd from the fluorescence difference before mixing and at equilibrium at seven [GBD] values on the stopped-flow instrument; 0.1 μM mantGppNHp·Cdc42; 50 mM sodium phosphate pH 7.0, 5 mM MgCl2, 1 mM TECP, 25 °C; kd deduced as the product of Kd and ka.
The target of assay [6] is T2, Human Cdc42 (residues 1-179) with …. As to the kind of experiment: stopped-flow fluorescence; ka from kobs against [GBD] as in buffer, with 1 M urea added.
Assay [7] shares this target. As to the kind of experiment: stopped-flow fluorescence; ka from kobs against [GBD] as in buffer, with 2 M urea added.
Assay [8] has the same target. Kind of assay: other fluorescence titration; Kd from the fluorescence difference before mixing and at equilibrium at seven [GBD] values on the stopped-flow instrument; 0.1 μM mantGppNHp·Cdc42; 50 mM sodium phosphate pH 7.0, 5 mM MgCl2, 1 mM TECP, 25 °C; kd deduced as the product of Kd and ka.

Substitutions are numbered along the chain they refer to.

T1 sequence (P60953 other isoform, or with tags, fused parts or gaps): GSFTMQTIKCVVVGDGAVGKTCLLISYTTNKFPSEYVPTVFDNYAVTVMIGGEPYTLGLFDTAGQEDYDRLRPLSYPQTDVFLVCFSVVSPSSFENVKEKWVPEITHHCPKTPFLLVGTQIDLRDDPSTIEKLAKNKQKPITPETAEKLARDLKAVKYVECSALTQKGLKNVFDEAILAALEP
T2 sequence (P60953 other isoform, or with tags, fused parts or gaps with the stated changes): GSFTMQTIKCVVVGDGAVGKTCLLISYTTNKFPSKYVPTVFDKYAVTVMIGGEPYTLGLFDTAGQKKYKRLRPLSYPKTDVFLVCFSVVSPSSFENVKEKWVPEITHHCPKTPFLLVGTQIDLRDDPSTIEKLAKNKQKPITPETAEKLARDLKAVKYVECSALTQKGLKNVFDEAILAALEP

B1: GTPase-binding domain (GBD) of the Wiskott-Aldrich Syndrome protein (WASP), wild type, residues 228-298 (domain or fragment, human)
chain: GSSGKKKISKADIGAPSGFKHVSHVGWDPQNGFDVNNLDPDLRSLFSRAGISEAQLTDAETSKLIYDFIEDQG
notes: two extra residues (Gly-Ser) from the thrombin recognition site left at the N-terminus of GBD; 15N labelled for the NMR experiment; also called GBDWT; wild-type GBD; source: E. coli Rosetta, purified (GSTrap, thrombin, 70 °C heat step, Superdex 75); not shown: GST, N-terminal, cleaved
Turning to B1, in assay [1], the “fold decrease of ka at 1 M urea relative to no urea” value was 1.6 fold. Further, the on-rate (kon) (usually the second-order rate constant of association) in assay [2] amounted to 5.53e+06 M⁻¹ s⁻¹; in assay [3], 2.14e+07 M⁻¹ s⁻¹. Also, the off-rate constant (koff) (in general, a measure of how fast the partners let go of each other) in assay [4] came to 0.696 ± 0.011 s⁻¹; in assay [5] it was 0.63 s⁻¹. Further, the equilibrium dissociation constant (Kd) – broadly, the concentration at which binding is half-saturated – in assay [5] stood at 114 ± 9 nM.

B2: WASP GBD (residues 228-298) with Lys230Lys231Lys232 substituted by Ala (domain or fragment, human)
chain: B1 chain with K5A, K6A, K7A
notes: two extra residues (Gly-Ser) from the thrombin recognition site left at the N-terminus of GBD; 15N labelled for the NMR experiment; also called GBD3A; source: E. coli Rosetta, purified (GSTrap, thrombin, 70 °C heat step, Superdex 75); not shown: GST, N-terminal, cleaved
For the molecule B2, the “fold decrease of ka at 1 M urea relative to no urea” value in assay [1] stood at 3.1 fold. The “fold decrease of ka at 1 M urea relative to no urea” value in assay [6] amounted to 3.5 fold. Moreover, the “fold decrease of ka at 2 M urea relative to no urea” value in assay [7] is 9.2 fold. The kon in assay [2] came to 920000 M⁻¹ s⁻¹. Further, the on-rate constant (kon) in assay [3] is 1.09e+07 M⁻¹ s⁻¹. In assay [5], the “fold increase in kd relative to GBDWT” value was 2 fold and the “fold weakening in binding affinity relative to GBDWT” value worked out at 13 fold. In assay [8], the “fold decrease in kd relative to Cdc42WT” value is 121 fold, the “fold higher affinity than GBDWT-Cdc42WT” value is about 100 fold and the “fold increase in binding affinity relative to Cdc42WT” value is about 1500 fold.

B3: WASP GBD (residues 228-298) with the 3A mutations plus Arg273 to Glu and Gly275 to Asp (domain or fragment, human)
chain: B1 chain with K5A, K6A, K7A, R48E, G50D
notes: two extra residues (Gly-Ser) from the thrombin recognition site left at the N-terminus of GBD; also called GBD_(3A/ED); source: E. coli Rosetta, purified (GSTrap, thrombin, 70 °C heat step, Superdex 75); not shown: GST, N-terminal, cleaved
For B3, the “fold reduction of ka relative to GBD3A” value in assay [2] worked out at 2.5 fold. Further, the “fold increase of Kd relative to GBD3A” value in assay [5] came out at 3.7 fold.

B4: WASP GBD (residues 228-298) with Lys230Lys231Lys232 changed to Glu (domain or fragment, human)
chain: B1 chain with K5E, K6E, K7E
notes: two extra residues (Gly-Ser) from the thrombin recognition site left at the N-terminus of GBD; also called GBD3E; source: E. coli Rosetta, purified (GSTrap, thrombin, 70 °C heat step, Superdex 75); not shown: GST, N-terminal, cleaved
B4 yielded a kon in assay [2] of 97000 M⁻¹ s⁻¹. In addition, the “fold increase in kd relative to GBDWT” value in assay [5] stood at 7 fold.

B5: Truncated WASP GBD (residues 238-298) with the BR segment deleted (domain or fragment, human)
chain: GSIGAPSGFKHVSHVGWDPQNGFDVNNLDPDLRSLFSRAGISEAQLTDAETSKLIYDFIEDQG
notes: two extra residues (Gly-Ser) from the thrombin recognition site left at the N-terminus of GBD; also called GBDΔBR; source: E. coli Rosetta, purified (GSTrap, thrombin, 70 °C heat step, Superdex 75); not shown: GST, N-terminal, cleaved
As for B5, the kon in assay [2] stood at 40000 M⁻¹ s⁻¹. Further, in assay [3], the kon was 4.03e+06 M⁻¹ s⁻¹. In assay [5], the “fold increase in kd relative to GBDWT” value is 10 fold and the “fold weakening in binding affinity relative to GBDWT” value was determined as 1420 fold. For the same molecule, in assay [8], the “fold decrease in kd relative to Cdc42WT” value is 16 fold and the “fold increase in binding affinity relative to Cdc42WT” value is about 1500 fold.
